Measured values: US20120122765A1, “COMPOUNDS AND RELATED METHODS FOR MANIPULATING PARP-1-DEPENDENT CELL DEATH” (priority 2010, published 2012)
“Also recorded” adds a separate entry of the source. Where no end group is shown, it is not given here.

Test system: PAR
Experiment: PAR overlay assay of full length AIF and mutants
Type: binding
Conditions: for reduced PAR binding: radioactive signal normalized to WT-AIF; for binding to 32P-labeled automodified PARP-1 or purified 32P-labeled PAR / effect of hundred fold excess of salmon sperm DNA on PAR binding: overlay assay; for binding to 32P-labeled automodified PARP-1 or purified 32P-labeled PAR: 100 nM PAR; for effect of hundred fold excess of salmon sperm DNA on PAR binding: 32P-labeled PAR; for effect of salmon sperm DNA on PAR binding: salmon sperm DNA at 760 μM
Method: The following experiment was performed to confirm whether AIF in fact binds to PAR. Applicants performed 3 trials of an overlay assay on recombinant AIF with affinity-purified biotin-labeled PAR. Histone H3, which binds to PAR with high affinity, was included as a positive control and bovine serum albumin (“BSA”) was included as a negative control, as described by P. Chang et al. (Nat Cell Bio, 2005). FIG. 1B depicts three photos side by side for gels representative of all trials for these overlay assays. […] Thus, Applicants took the results of these two tests as confirming that AIF binds to PAR in vitro.
To further study these potential AIF PBMs, Applicants performed the following experiment to examine the effect of mutating AIFm amino acids 222-244, 441-463, and/or 567-592 to poly-alanine on the ability of AIF to bind PAR. FIG. 6 comprises black and white photographs of representative gels from an overlay assay of His-tagged WT-AIF, AIFm222-244, AIFm441-463, AIFm567-592, AIFΔ567-592 (i.e., a mutant lacking AAs 567-592), and AIF(K254A, R264A) (i.e., mutating K to A at 254 and R to A at 264) mutants with ^32P-labeled automodified PARP-1 (equivalent to 100 nM of PAR), purified ^32P-labeled PAR (100 nM), or purified ^32P-labeled PAR with either a 100-fold excess of DNA or cold PAR. […] The same can be assumed to corresponding sequences for other species, such as those identified in FIG. 4.
Additionally, to exclude the possibility that PAR polymer is binding to AIF through its DNA-binding domain, PAR polymer binding was assessed against the full length AIF DNA-binding mutant AIFK254A;R264A as described by H Cande et al. (Nat Struct Biol, 2002).
Finally, Human AIF (“AIFH”) is known to bind to DNA through a groove between the FAD-binding domain (“D1”) and C-terminal domain (“D3”). A mutant form of AIFH in which lysine 255 is substituted with alanine and arginine 265 is substituted with alanine (AIFK255A;R265A) completely lacks DNA binding. To investigate the possible contribution of the AIF DNA-binding domain to PAR binding, Applicants assessed PAR binding to AIFm mutated in the same way (AIFK254A;R264A). […] Thus, Applicants concluded that the AIF PAR-binding site is separable from its DNA-binding site, meaning that such binding could be inhibited by genetically modifying AIF without impacting the natural DNA binding capabilities of AIF or potentially by otherwise inhibiting the binding action of the PBMs.

AIFK589L;K592L: His-tagged mouse AIF double leucine mutant, SEQ. ID NO. 21 (LRDKVVVGIVLWNVFNRMPIARLIIL; also: His tag)
reduced PAR binding: about 85%

AIFR588L;K589L: His-tagged mouse AIF double leucine mutant, SEQ. ID NO. 19 (LRDKVVVGIVLWNVFNRMPIALLIIK; also: His tag)
reduced PAR binding: about 85%

AIFR588L;K592L: His-tagged mouse AIF double leucine mutant, SEQ. ID NO. 20 (LRDKVVVGIVLWNVFNRMPIALKIIL; also: His tag)
reduced PAR binding: about 85%

triple leucine mutant: mouse AIF mutant R588L;K589L;K592L (LRDKVVVGIVLWNVFNRMPIALLIIL; mouse)
PAR binding (His-tagged proteins, purified PAR, normalized to WT-AIF, result in words): nearly abolished PAR-binding

B1: AIFm441-463: His-tagged mouse AIF with amino acids 441 to 463 mutated to poly-alanine (protein)
chain: MFRCGGLAGAFKQKLVPLVRTVYVQRPKQRNRLPGNLFQQWRVPLELQMARQMASSGSSGGKMDNSVLVLIVGLSTIGAGAYAYKTIKEDQKRYNERVMGLGLSPEEKQRRAIASATEGGSVPQIRAPSHVPFLLIGGGTAAFAAARSIRARDPGARVLIVSEDPELPYMRPPLSKELWFSDDPNVTKTLQFRQWNGKERSIYFQPPSFYVSAQDLPNIENGGVAVLTGKKVVHLDVRGNMVKLNDGSQITFEKCLIATGGTPRSLSAIDRAGAEVKSRTTLFRKIGDFRALEKISREVKSITVIGGGFLGSELACALGRKSQASGIEVIQLFPEKGNMGKILPQYLSNWTMEKVKREGVKVMPNAIVQSVGVSGGRLLIKLKDGRKVETDHIVTAVGLEPNVELAKTGGLEIDSDFGGFRVNAELQARSNIWVAGDAACAAAAAAAAAAAAAAAAAAAAAAAAGENMTGAAKPYWHQSMFWSDLGPDVGYEAIGLVDSSLPTVGVFAKATAQDNPKSATEQSGTGIRSESETESEASEITIPPSAPAVPQVPVEGEDYGKGVIFYLRDKVVVGIVLWNVFNRMPIARKIIKDGEQHEDLNEVAKLFNIHED
modifications: left off: small tags and cut ends
notes: His-tagged mouse AIF with amino acids 441 to 463 mutated to poly-alanine
binding to 32P-labeled automodified PARP-1 or purified 32P-labeled PAR (His-tagged proteins): comparable binding to that of unmutated WT-AIFm | effect of hundred fold excess of salmon sperm DNA on PAR binding: fails to disrupt | effect of salmon sperm DNA on PAR binding: failed to disrupt PAR binding

B2: AIF-Sm: full length mouse AIF, arginine at 588 substituted with alanine (protein, UniProt Q9Z0X1 1-612, looked up, variant R588A)
chain: MFRCGGLAGAFKQKLVPLVRTVYVQRPKQRNRLPGNLFQQWRVPLELQMARQMASSGSSGGKMDNSVLVLIVGLSTIGAGAYAYKTIKEDQKRYNERVMGLGLSPEEKQRRAIASATEGGSVPQIRAPSHVPFLLIGGGTAAFAAARSIRARDPGARVLIVSEDPELPYMRPPLSKELWFSDDPNVTKTLQFRQWNGKERSIYFQPPSFYVSAQDLPNIENGGVAVLTGKKVVHLDVRGNMVKLNDGSQITFEKCLIATGGTPRSLSAIDRAGAEVKSRTTLFRKIGDFRALEKISREVKSITVIGGGFLGSELACALGRKSQASGIEVIQLFPEKGNMGKILPQYLSNWTMEKVKREGVKVMPNAIVQSVGVSGGRLLIKLKDGRKVETDHIVTAVGLEPNVELAKTGGLEIDSDFGGFRVNAELQARSNIWVAGDAACFYDIKLGRRRVEHHDHAVVSGRLAGENMTGAAKPYWHQSMFWSDLGPDVGYEAIGLVDSSLPTVGVFAKATAQDNPKSATEQSGTGIRSESETESEASEITIPPSAPAVPQVPVEGEDYGKGVIFYLRDKVVVGIVLWNVFNRMPIAAKIIKDGEQHEDLNEVAKLFNIHED
modifications: full-length
notes: full length mouse AIF, arginine at 588 substituted with alanine
reduced PAR binding: 40%

B3: AIF-Dm: full length mouse AIF, arginine 588 and lysine 589 substituted with alanines (protein, UniProt Q9Z0X1 1-612, looked up, variant R588A K589A)
chain: MFRCGGLAGAFKQKLVPLVRTVYVQRPKQRNRLPGNLFQQWRVPLELQMARQMASSGSSGGKMDNSVLVLIVGLSTIGAGAYAYKTIKEDQKRYNERVMGLGLSPEEKQRRAIASATEGGSVPQIRAPSHVPFLLIGGGTAAFAAARSIRARDPGARVLIVSEDPELPYMRPPLSKELWFSDDPNVTKTLQFRQWNGKERSIYFQPPSFYVSAQDLPNIENGGVAVLTGKKVVHLDVRGNMVKLNDGSQITFEKCLIATGGTPRSLSAIDRAGAEVKSRTTLFRKIGDFRALEKISREVKSITVIGGGFLGSELACALGRKSQASGIEVIQLFPEKGNMGKILPQYLSNWTMEKVKREGVKVMPNAIVQSVGVSGGRLLIKLKDGRKVETDHIVTAVGLEPNVELAKTGGLEIDSDFGGFRVNAELQARSNIWVAGDAACFYDIKLGRRRVEHHDHAVVSGRLAGENMTGAAKPYWHQSMFWSDLGPDVGYEAIGLVDSSLPTVGVFAKATAQDNPKSATEQSGTGIRSESETESEASEITIPPSAPAVPQVPVEGEDYGKGVIFYLRDKVVVGIVLWNVFNRMPIAAAIIKDGEQHEDLNEVAKLFNIHED
modifications: full-length
notes: full length mouse AIF, arginine 588 and lysine 589 substituted with alanines
reduced PAR binding: 80%

B4: AIFK254A;R264A: full length mouse AIF DNA-binding mutant, K to A at 254 and R to A at 264 (protein)
chain: MFRCGGLAGAFKQKLVPLVRTVYVQRPKQRNRLPGNLFQQWRVPLELQMARQMASSGSSGGKMDNSVLVLIVGLSTIGAGAYAYKTIKEDQKRYNERVMGLGLSPEEKQRRAIASATEGGSVPQIRAPSHVPFLLIGGGTAAFAAARSIRARDPGARVLIVSEDPELPYMRPPLSKELWFSDDPNVTKTLQFRQWNGKERSIYFQPPSFYVSAQDLPNIENGGVAVLTGKKVVHLDVRGNMVKLNDGSQITFEACLIATGGTPASLSAIDRAGAEVKSRTTLFRKIGDFRALEKISREVKSITVIGGGFLGSELACALGRKSQASGIEVIQLFPEKGNMGKILPQYLSNWTMEKVKREGVKVMPNAIVQSVGVSGGRLLIKLKDGRKVETDHIVTAVGLEPNVELAKTGGLEIDSDFGGFRVNAELQARSNIWVAGDAACFYDIKLGRRRVEHHDHAVVSGRLAGENMTGAAKPYWHQSMFWSDLGPDVGYEAIGLVDSSLPTVGVFAKATAQDNPKSATEQSGTGIRSESETESEASEITIPPSAPAVPQVPVEGEDYGKGVIFYLRDKVVVGIVLWNVFNRMPIARKIIKDGEQHEDLNEVAKLFNIHED
modifications: left off: small tags and cut ends
binding to 32P-labeled automodified PARP-1 or purified 32P-labeled PAR (His-tagged proteins): still substantially binds; also recorded: bound to ^32P-labeled automodified PARP-1 and purified ^32P-labeled PAR | effect of hundred fold excess of salmon sperm DNA on PAR binding: fails to disrupt | effect of salmon sperm DNA on PAR binding: failed to disrupt PAR binding

B5: AIF-Qm: full length mouse AIF, arginine 588, lysine 589, lysine 592 and arginine 583 substituted with alanines (protein, UniProt Q9Z0X1 1-612, looked up, variant R583A R588A K589A K592A)
chain: MFRCGGLAGAFKQKLVPLVRTVYVQRPKQRNRLPGNLFQQWRVPLELQMARQMASSGSSGGKMDNSVLVLIVGLSTIGAGAYAYKTIKEDQKRYNERVMGLGLSPEEKQRRAIASATEGGSVPQIRAPSHVPFLLIGGGTAAFAAARSIRARDPGARVLIVSEDPELPYMRPPLSKELWFSDDPNVTKTLQFRQWNGKERSIYFQPPSFYVSAQDLPNIENGGVAVLTGKKVVHLDVRGNMVKLNDGSQITFEKCLIATGGTPRSLSAIDRAGAEVKSRTTLFRKIGDFRALEKISREVKSITVIGGGFLGSELACALGRKSQASGIEVIQLFPEKGNMGKILPQYLSNWTMEKVKREGVKVMPNAIVQSVGVSGGRLLIKLKDGRKVETDHIVTAVGLEPNVELAKTGGLEIDSDFGGFRVNAELQARSNIWVAGDAACFYDIKLGRRRVEHHDHAVVSGRLAGENMTGAAKPYWHQSMFWSDLGPDVGYEAIGLVDSSLPTVGVFAKATAQDNPKSATEQSGTGIRSESETESEASEITIPPSAPAVPQVPVEGEDYGKGVIFYLRDKVVVGIVLWNVFNAMPIAAAIIADGEQHEDLNEVAKLFNIHED
modifications: full-length
notes: full length mouse AIF, arginine 588, lysine 589, lysine 592 and arginine 583 substituted with alanines
reduced PAR binding: 90%
